This note sets out measurements from the nanobody polyreactivity screen of Harvey et al. (2022).

This data set in a line: yeast display, Sf9 membrane polyspecificity reagent, FACS + sequencing; frameworks hold sequencing errors. Summed up: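 Galactose induction of a Saccharomyces cerevisiae BJ5465 synthetic nanobody display library ran 36–48 hours. The cells were then stained for 1 hour at 4 °C with 10% biotinylated, detergent-solubilized Sf9 membrane reagent, pulled down on streptavidin microbeads and FACS-sorted into low and high (top ~1%) gates on expression and reagent-binding fluorescence. Labels for polyreactivity follow the gate of origin.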
As to “QVQLVESGGGLVQAGGSLRLSCAASGFTFRYYAMGWYRQAPGKEREFVAAIRRSGANTYYADSVKGRFTISRDNAKNTVYLQMNSLKPEDTAVYYCAADKNYYPYKFDYWGQGTQVTVSS”, the “polyreactivity (PSR sort gate)” value is recorded as “high polyreactivity”.

Regarding “QVQLVESGGGLVQAGGSLRLSCAASGFTFRYYAMGWYRQAPGKERELVAAINSGDSTNYADSVKGRFTISRDNAKNTVYLQMNSLKPEDTAVYYCATRLWKIPGAMYYWGQGTQVTVSS”, the “polyreactivity (PSR sort gate)” value is “high polyreactivity”.

“QVQLVESGGGLVQAGGSLRLSCAASGFTFRYYAMGWYRQAPGKERELVAAISAGGGSTYYADSVKGRFTISRDNAKNTVYLQMNSLKPEDTAGYYCAAAGARPGYDYWGQGTQVTVSS”: the “polyreactivity (PSR sort gate)” value was “high polyreactivity”.

“QVQLVESGGGLVQAGGSLRLSCAASGFTFRYYAMGWYRQAPGKERELVAAISARGTSTYYADSVKGRFTISRDNAKITVYLQMNSLKPEDTAVYYCAARYGLYPARGYDYWGQGTQVSVSS”: the “polyreactivity (PSR sort gate)” value is “high polyreactivity”.

Consider “QVQLVESGGGLVQAGGSLRLSCAASGFTFRYYAMGWYRQAPGKERELVAAISYNGGSTYYADSVKGRFTISRDNAKNTVYLQMNSLKPEDTAVYYCAADGGRRFGYWGQGTQVTVSS”, for which the “polyreactivity (PSR sort gate)” value is reported as “high polyreactivity”.

In the case of “QVQLVESGGGLVQAGGSLRLSCAASGFTFRYYAMGWYRQAPGKERELVAGISSRGGSTYYADSVKGRFTISRDNAKNTDYLQMNSLKTEDTAVYYCATERFLLGLGYDYWGQGTQVTVSS”, the “polyreactivity (PSR sort gate)” value is listed as “high polyreactivity”.

For the sequence “QVQLVESGGGLVQAGGSLRLSCAASGFTFRYYAMGWYRQAPGKERELVASITGGGRTYYADSVKGRFTISRDNAKNTVYLQMNSLKPEDTAVYYCATLLAYRLGSGYDSWGQGTQVTVSS”, the “polyreactivity (PSR sort gate)” value is recorded as “high polyreactivity”.

Turning to “QVQLVESGGGLVQAGGSLRLSCAASGFTFRYYVMGWYRQAPGNEREFVAAITWADGSTFYAVSVKGRFTISRDKAKNTDYLHMNSLKPEDTAVYYCAADYSRTYRAYDYWGQGTQVTVSS”, the “polyreactivity (PSR sort gate)” value was “low polyreactivity”.

“QVQLVESGGGLVQAGGSLRLSCAASGFTFSDHAMGWYRQAPGKERELVAAISRSRGNTHYADSVKGRFTISRDNAKNTVYLQMNSLKPEDTAVYYCNAVQGQGQYEYWGQATQVTVSS”: the “polyreactivity (PSR sort gate)” value is recorded as “high polyreactivity”.

On to “QVQLVESGGGLVQAGGSLRLSCAASGFTFSDNAMVWYRQAPGKERELVAAISEGSGITYYADSVKGRFTISRDNAKNTVTLQMNSLKPEDNAVYYCAADWLSKYDYWGQGTQVTVSS”, for which the “polyreactivity (PSR sort gate)” value is “low polyreactivity”.

For “QVQLVESGGGLVQAGGSLRLSCAASGFTFSFYAMGWYIQAPGKERELVAVISKSGGRTYYADSVKGRFTISRDNAKNTVYLQMNSLKPEDTAVYYCAAKRTSTRIYTFEYWGQGTQVTVSS”, the “polyreactivity (PSR sort gate)” value is “high polyreactivity”.

Take “QVQLVESGGGLVQAGGSLRLSCAASGFTFSFYAMGWYRQAPGKERELVAAISSGGRTSYADSVKGRFTISRDNAKNTVYLQMNSLKPEDTAVYYCAASYPGRYWLYRYEYWGQGTQVTVSS”: the “polyreactivity (PSR sort gate)” value is recorded as “high polyreactivity”.

On to “QVQLVESGGGLVQAGGSLRLSCAASGFTFSFYAMGWYRQAPGKERELVAAITWSGGNTYYADSVKGRFTISRDNAKNTVDLQMNSLKPEDTAVYYCAARGPASVRYYYWGQGTQVTVSS”, for which the “polyreactivity (PSR sort gate)” value is listed as “high polyreactivity”.

For “QVQLVESGGGLVQAGGSLRLSCAASGFTFSFYAMGWYRQAPGKERELVAGISKRGGSTYYADSVKGRFTISRDNAKKTVFLQMNSLKPEDTAVYYCARSYYTNGNALKRDYWGQGTQVTVSS”, the “polyreactivity (PSR sort gate)” value is “high polyreactivity”.

“QVQLVESGGGLVQAGGSLRLSCAASGFTFSFYAMGWYRQAPGKERELVATISSGGSTTYADSVKGRFTISRDNAKNTVYLQMNSLKPEDTEVYYCAARYGRVRNYRYDYWGQGTQVTVSS”: the “polyreactivity (PSR sort gate)” value was “high polyreactivity”.

Take “QVQLVESGGGLVQAGGSLRLSCAASGFTFSFYAMGWYRQAPGKERELVATISSGGSTTYAVSVKGRFTISRDNAKNTVYLQMNSLKPEDTAVYYCNARPGQSGARFGYWGQGTQVTVSS”: the “polyreactivity (PSR sort gate)” value is “high polyreactivity”.

In the case of “QVQLVESGGGLVQAGGSLRLSCAASGFTFSFYTMGWYRQAPGKERELVAAISTSGSTYYADSVKGRFTISRDNAKNTVYLQMNSLKPEDTAVYYCAAGRWWRYFTWHGYWGQGTQVTVSS”, the “polyreactivity (PSR sort gate)” value is reported as “high polyreactivity”.

On to “QVQLVESGGGLVQAGGSLRLSCAASGFTFSGHTMGWSRQAPGKERELVATISRTGGITYYADSVKGRFTISRDNAKNTVLLQMNSLKPEDTAVYYCNRRYYYFVYPDDYWGQGTQVTVSS”, for which the “polyreactivity (PSR sort gate)” value is “high polyreactivity”.

On to “QVQLVESGGGLVQAGGSLRLSCAASGFTFSGNALGWYRQARGKERELVAAISVGGGRTYYADSVKGRFTISRDNAKNTVYLQMNSLKPEDTAVYYCARYTRRSETWRYDYWGQGTQVTVSS”, for which the “polyreactivity (PSR sort gate)” value is listed as “high polyreactivity”.

As to “QVQLVESGGGLVQAGGSLRLSCAASGFTFSGYDMGWYRQAPGKERELVAGISSGGVSTTYADSVKGRFTISRDNAKNTVYLQMNSLKPEDTAVYYCSTSGPQYYSRNFDYWGQGTQVTVSS”, the “polyreactivity (PSR sort gate)” value was “low polyreactivity”.

On to “QVQLVESGGGLVQAGGSLRLSCAASGFTFSHYAMGWYRQAPGKERELVAAISRRGSSTYYADSVKGRFTISRDNAKNTVYLQMNSLKPEDTAVYYCNVERLTGVWYYQRPSQDGYWGQGTQVTVSS”, for which the “polyreactivity (PSR sort gate)” value is “high polyreactivity”.

“QVQLVESGGGLVQAGGSLRLSCAASGFTFSKYAMGWYLQAPGKERELVAAISRRGGSTYYADSVKGRFTISRDNAKNTVYLQMNSLKPEDTAVYYCAARYSVGTGYGYWGQGTQVTVSS”: the “polyreactivity (PSR sort gate)” value was “high polyreactivity”.

“QVQLVESGGGLVQAGGSLRLSCAASGFTFSKYGMGWYRQAPGKERELVAAISSGGSTHYADSVKGRFTISRDNAKNTVYLQMNILKPADTAVYYCNASSKFAKPQRYYWGQGTQVTVSS”: the “polyreactivity (PSR sort gate)” value was “low polyreactivity”.

In the case of “QVQLVESGGGLVQAGGSLRLSCAASGFTFSLYAMGWYRQAPGKERELVASIDSDGVSTYYADSVKGRFTISRDNAKNTVYLQMNSLKPEDTAVYYCAADLWWGYISGPVRGRGYYWGQGTQVTVSS”, the “polyreactivity (PSR sort gate)” value is “low polyreactivity”.

For the sequence “QVQLVESGGGLVQAGGSLRLSCAASGFTFSLYAMGWYRQAPGKERELVASISRSGGSTYYADSVKGRFTISRDNAKNTVYLQMNSLKPEDTAVYYCAARWRPYKYDSWGQGTQVTVSS”, the “polyreactivity (PSR sort gate)” value was “high polyreactivity”.

On to “QVQLVESGGGLVQAGGSLRLSCAASGFTFSNYTMGWYRQAPGKERELVAAIRSSGGRTYYADSVKGRFTISRDNAKNTVYLQMDSLKPEDTAVYYCNAEYRTDGGYWVQGTQVTVSS”, for which the “polyreactivity (PSR sort gate)” value was “low polyreactivity”.

On to “QVQLVESGGGLVQAGGSLRLSCAASGFTFSPNAMRWYRQAPGKERELVAAIDWSGDRTYYADSVKGRFTISRDNAKNTVYLQMNSLKPEDTAVYYCAADIRDPGVPMDYWGQGTQVTVSS”, for which the “polyreactivity (PSR sort gate)” value was “low polyreactivity”.

As for “QVQLVESGGGLVQAGGSLRLSCAASGFTFSRYAMGWYRPAPGKERELVAAITSSGGSTYYADSVKGRFTISRDNAKNTVYLQMNSLKPEDTAVYYCAAGKYTASNGYGYWGQGTQVTVSS”, the “polyreactivity (PSR sort gate)” value was “high polyreactivity”.

Consider “QVQLVESGGGLVQAGGSLRLSCAASGFTFSSNAMGWYRQAPGKEREFVAAISFNSTSTYYADSVKGRFKISRDNAKNTVYLQMNSLKPEDTAVYYCAADVPRVQSEPEYDYWGQGTQVTVSS”, for which the “polyreactivity (PSR sort gate)” value is on record as “low polyreactivity”.

In the case of “QVQLVESGGGLVQAGGSLRLSCAASGFTFSSYAMGWYRQAPGKERELDAAITRNGGSTYYADSVKGRFTISRDNAKNTDYLQMNSLNPEYTAVYNCAAQYPRQRYGYYWPYYKYYYWGHGTQVTVSS”, the “polyreactivity (PSR sort gate)” value is recorded as “high polyreactivity”.

On to “QVQLVESGGGLVQAGGSLRLSCAASGFTFSSYAMGWYRQAPGKERELVAAISGSGDRTRYADSVKGRFTISRDNAKNTVYLQMNSLKPEDTAVYYCAAKSPGSQTAMDYWGQGTQVTVSS”, for which the “polyreactivity (PSR sort gate)” value is reported as “high polyreactivity”.

Regarding “QVQLVESGGGLVQAGGSLRLSCAASGFTFSSYAMGWYRQAPGKERELVAAITISGGRTYYADSVKGRFTISRDNAKNTVYLQMNSLKPEDTAVYYCAALYVEGQNHYGYWGQGTQVTVSS”, the “polyreactivity (PSR sort gate)” value is on record as “high polyreactivity”.

As for “QVQLVESGGGLVQAGGSLRLSCAASGFTFSSYAMGWYRQAPGKERELVARISSGSSTNYADSVKGRFTISRDNAKNTVYLQMNSLKPEDTAVYYCAARYTARRQSYGYWGQGTQVTVSS”, the “polyreactivity (PSR sort gate)” value is given as “high polyreactivity”.

As to “QVQLVESGGGLVQAGGSLRLSCAASGFTFSTYAMGWYRQAPGKEREFVAAISRGGTRTYYADSVKGRFTISRDNAKNTVYLQMTSLKPEDTAVYYCAARSKARNGYDYWGQGTQVTVSS”, the “polyreactivity (PSR sort gate)” value is listed as “high polyreactivity”.

As for “QVQLVESGGGLVQAGGSLRLSCAASGFTFSTYAMGWYRQAPGKERELVAAISGSGGRTYYADSVKGRFKISRDNAKNTVYLQMNSLKPEDTAVYYCAALTYSTVLGFDYWGQGTQVTVSS”, the “polyreactivity (PSR sort gate)” value is “high polyreactivity”.

“QVQLVESGGGLVQAGGSLRLSCAASGFTFSWYAMGWYRPAPGKERELVAAISWDGDSTYYADSVKGRFTISRDNAKNTVYLQMNSLIPEDTAVYYCAADFYYYWDGYDYWGQGTQVTVSS”: the “polyreactivity (PSR sort gate)” value is “high polyreactivity”.

In the case of “QVQLVESGGGLVQAGGSLRLSCAASGFTFSWYAMGWYRQAPGKERELVAAISRRGGSTYYADSVKGRFTISRDIAKNTVYLQMNSLKPEDTAVYYCNAALTYDYNYWGQGTQVTVSS”, the “polyreactivity (PSR sort gate)” value is listed as “high polyreactivity”.

For the sequence “QVQLVESGGGLVQAGGSLRLSCAASGFTFSWYAMGWYRQAPGKERELVAAITSGGSTYYADSVKGRFTLSRDNAKNTVYLQMISLKPEDTAVYYCNKAFASIAPVWSGYDFWGQGTQVTVSS”, the “polyreactivity (PSR sort gate)” value is on record as “low polyreactivity”.

With “QVQLVESGGGLVQAGGSLRLSCAASGFTFSYYAMGWYRQAPGHEREFVAAIIWNGTSTYYADSVKGRFTISRDNAKNTVYLQMNSLKPEDTAVYYCAAYDVHDYDYWGQGTQVTVSS”, the “polyreactivity (PSR sort gate)” value is “high polyreactivity”.

With “QVQLVESGGGLVQAGGSLRLSCAASGFTFSYYAMGWYRQAPGKERELVAAISFGGSTYYADSVKGRFTISRDNAKNTVYLQMNSLKPEDTAVYYCAVYGDSYWGAYYYSDGYWGQGTQVTVSS”, the “polyreactivity (PSR sort gate)” value was “low polyreactivity”.

With “QVQLVESGGGLVQAGGSLRLSCAASGFTFSYYAMGWYRQAPGKERELVAAISWSGTATYYADSVKGRFTISRDNAKNTVYLQMNSLKPEDTAVYYCAAGYSASGKVDYRGQGTQVTVSS”, the “polyreactivity (PSR sort gate)” value was “high polyreactivity”.
